Biological target: the molecule itself
Assay: crystal structure

B1: Rap1GAP Q204A (75–415) (domain or fragment)
chain: not shown
- stoichiometry N: 2

Reference: paper PMC2265111 (The EMBO Journal, 2008)
